In patent publication US20240294646A1:
One block for each substance: values may come before it.

Tests used:
[1] = target: FcγRIIb, soluble extracellular domain (UniProt P31994); assay: SPR; IIb-Fold/IIaR-Fold (FcγRIIb against FcγRIIaR), vs. wild-type v16463
[2] = target: FcγRIIb, soluble extracellular domain (UniProt P31994); assay: SPR; fold change in affinity over wild-type v16463
[3] = target: FcγRIIaR, soluble extracellular domain (UniProt P12318); assay: SPR; fold change in affinity over wild-type v16463
[4] = target: FcγRIIb, soluble extracellular domain (UniProt P31994); assay: SPR (General Methods Protocol 2): one-armed antibody captured on immobilised HER2, soluble receptor as analyte
[5] = target: FcγRIIaR, soluble extracellular domain (UniProt P12318); assay: as above
[6] = target: Soluble FcγRIIaR extracellular domain with C-terminal 10×His tag (UniProt P12318); assay: SPR; KD of WT v16463 / KD of variant
[7] = target: Soluble FcγRIIb extracellular domain with C-terminal 10×His tag (UniProt P31994); assay: SPR; KD of WT v16463 / KD of variant
[8] = target: Soluble FcγRIIb extracellular domain with C-terminal 10×His tag (UniProt P31994); assay: SPR; IIb-Fold / IIaR-Fold (FcγRIIb against FcγRIIaR)
[9] = target: Soluble FcγRIIaR extracellular domain with C-terminal 10×His tag (UniProt P12318); assay: SPR (Biacore 4000), antibody captured on immobilised HER2, receptor as analyte
[10] = target: Soluble FcγRIIb extracellular domain with C-terminal 10×His tag (UniProt P31994); assay: as above
FcγRIIb [11] = target: FcγRIIb (UniProt P31994); assay: SPR (Protocol 2), against wild-type 16463
FcγRIIb [12] = target: FcγRIIb (UniProt P31994); assay: SPR (Protocol 2, Biacore 4000), antibody captured on immobilised HER2, FcγR as analyte
FcγRIIaR [13] = target: FcγRIIaR (UniProt P12318); assay: as above
FcγRIIb [14] = target: FcγRIIb (UniProt P31994); assay: SPR (Protocol 2); selectivity for FcγRIIb against FcγRIIaR
[15] = target: Soluble FcγRIIaR extracellular domain with C-terminal 10xHis tag (UniProt P12318); assay: SPR; fold relative to control v27293
[16] = target: Soluble FcγRIIb extracellular domain with C-terminal 10xHis tag (UniProt P31994); assay: SPR; fold relative to control v27293
[17] = target: Biotinylated FcγRIIb extracellular domain-Fc fusion (human IgG1 Fc with L234A_L235A_D265S) (human) (UniProt P31994); assay: competition electrochemiluminescence, antibody on HER2-coated plate, biotinylated FcγRIIb-Fc; competitor FcγRIIaR-Fc at 10x
[18] = target: Soluble FcγRIIaR extracellular domain with C-terminal 10xHis tag (UniProt P12318); assay: SPR, antibody captured on immobilised HER2, soluble receptor as analyte
[19] = target: Soluble FcγRIIb extracellular domain with C-terminal 10xHis tag (UniProt P31994); assay: as above
[20] = target: Soluble FcγRIIaR extracellular domain with C-terminal 10xHis tag (UniProt P12318); assay: SPR; fold change in affinity over WT v16463
[21] = target: Soluble FcγRIIb extracellular domain with C-terminal 10xHis tag (UniProt P31994); assay: SPR; fold change in affinity over WT v16463
[22] = target: Soluble FcγRIIb extracellular domain with C-terminal 10xHis tag (UniProt P31994); assay: SPR; selectivity relative to control v27293
[23] = target: Soluble FcγRIIb extracellular domain with C-terminal 10xHis tag (UniProt P31994); assay: SPR; IIb-Fold / IIaR-Fold
FcγRIIb [24] = target: FcγRIIb (UniProt P31994); assay: SPR, antibody captured on immobilised HER2, receptor as analyte; fold affinity over WT v16463
FcγRIIaR [25] = target: FcγRIIaR (UniProt P12318); assay: as above
FcγRIIb [26] = target: FcγRIIb (UniProt P31994); assay: SPR; IIb-Fold divided by IIaR-Fold (FcγRIIb against FcγRIIaR)
FcγRIIb [27] = target: FcγRIIb (UniProt P31994); assay: SPR imaging (IBIS MX96), antibody spotted on chip, soluble receptor as analyte, kinetic fit, 25 C, pH 7.4
FcγRIIaR [28] = target: FcγRIIaR (UniProt P12318); assay: as above
FcγRIIb [29] = target: FcγRIIb (UniProt P31994); assay: derived from the SPRi KDs for FcγRIIb and FcγRIIaR, relative to WT
FcγRIa = FcγRIa (UniProt P12314); assay: SPR, antibody captured on HER2 chip, receptor as analyte; fold change in affinity over wild-type
FcγRIIaH = FcγRIIaH (UniProt P12318); assay: as above
FcγRIIIaF = FcγRIIIaF (UniProt P08637); assay: as above
FcγRIIb [30] = target: FcγRIIb (UniProt P31994); assay: as above
FcγRIIaR [31] = target: FcγRIIaR (UniProt P12318); assay: as above
FcγRIIb [32] = target: FcγRIIb (UniProt P31994); assay: SPR; IIb-Fold divided by IIaR-Fold, selectivity for FcγRIIb over FcγRIIaR relative to wild-type
[33] = target: Soluble FcγRIIaR extracellular domain with C-terminal 10×His tag (UniProt P12318); assay: SPR; KD ratio against wild-type v16463
[34] = target: Soluble FcγRIIb extracellular domain with C-terminal 10×His tag (UniProt P31994); assay: SPR; KD ratio against wild-type v16463
[35] = target: Soluble FcγRIIb extracellular domain with C-terminal 10×His tag (UniProt P31994); assay: SPR; ratio of IIb-Fold to IIaR-Fold (FcγRIIb against FcγRIIaR)
[36] = target: Biotinylated FcγRIIb extracellular domain-Fc fusion (human IgG1 Fc with L234A_L235A_D265S) (human) (UniProt P31994); assay: competition electrochemiluminescence assay; antibody on HER2, biotinylated FcγRIIb-Fc, competitor FcγRIIaR-Fc
[37] = target: Soluble FcγRIIaR extracellular domain with C-terminal 10×His tag (UniProt P12318); assay: SPR, antibody captured on HER2 chip, receptor as analyte
[38] = target: Soluble FcγRIIb extracellular domain with C-terminal 10×His tag (UniProt P31994); assay: as above
[39] = target: Soluble FcγRIIaR extracellular domain with C-terminal 10xHis tag (UniProt P12318); assay: SPR; fold change in affinity over wild-type v16463
[40] = target: Soluble FcγRIIb extracellular domain with C-terminal 10xHis tag (UniProt P31994); assay: SPR; fold change in affinity over wild-type v16463
[41] = target: Biotinylated FcγRIIb extracellular domain-Fc fusion (human IgG1 Fc with L234A_L235A_D265S) (human) (UniProt P31994); assay: competition electrochemiluminescence (MSD), antibody on coated HER2, biotinylated FcγRIIb-Fc with FcγRIIaR-Fc as competitor
[42] = target: Soluble FcγRIIb extracellular domain with C-terminal 10xHis tag (UniProt P31994); assay: SPR; IIb-Fold/IIaR-Fold (FcγRIIb against FcγRIIaR)
[43] = target: Soluble FcγRIIaR extracellular domain with C-terminal 10xHis tag (UniProt P12318); assay: SPR (Biacore 4000), antibody captured on immobilised HER2, receptor as analyte
[44] = target: Soluble FcγRIIb extracellular domain with C-terminal 10xHis tag (UniProt P31994); assay: as above
[45] = target: Soluble FcγRIIaR extracellular domain with C-terminal 10xHis tag (UniProt P12318); assay: SPR; KD of WT v16463 / KD of variant
[46] = target: Soluble FcγRIIb extracellular domain with C-terminal 10xHis tag (UniProt P31994); assay: SPR; KD of WT v16463 / KD of variant
[47] = target: Soluble FcγRIIb extracellular domain with C-terminal 10xHis tag (UniProt P31994); assay: SPR; IIb-Fold / IIaR-Fold (FcγRIIb against FcγRIIaR)
[48] = target: Soluble FcγRIIb extracellular domain with C-terminal 10xHis tag (UniProt P31994); assay: SPR; IIb selectivity relative to control v27293
[49] = target: Soluble FcγRIIaR extracellular domain with C-terminal 10xHis tag (UniProt P12318); assay: SPR; fold affinity relative to control v27293
[50] = target: Soluble FcγRIIb extracellular domain with C-terminal 10xHis tag (UniProt P31994); assay: SPR; fold affinity relative to control v27293
[51] = target: Soluble FcγRIIaR extracellular domain with C-terminal 10xHis tag (UniProt P12318); assay: SPR (Biacore 4000); variant captured on HER2, receptor in solution
[52] = target: Soluble FcγRIIb extracellular domain with C-terminal 10xHis tag (UniProt P31994); assay: as above

Substance: Variant 16463, wild-type one-armed trastuzumab antibody with heterodimeric IgG1 Fc
IIaR-fold [6]: 1 fold | IIb-Fold [7]: 1 fold | IIb Selectivity [8]: 1 fold | Kd [9]: 0.31 µM | Kd [10]: 1.4 µM

Substance: Variant 27293, Launching Module 1 (A_G236N_G237A / B_G236D_G237F_S239D_S267V_H268D_Template_1), one-armed trastuzumab antibody
IIaR-Fold wrt Control [15]: 1 fold | IIb-Fold wrt Control [16]: 1 fold | ELISA (% of non-competed FcγRIIb signal in presence of 10x FcγRIIa) [17]: 70.8% | Kd [18]: 0.0088 µM | Kd [19]: 0.0035 µM | IIaR-fold [20]: 35.2 fold | IIb-Fold [21]: 415 fold | IIb Selectivity Fold wrt Control [22]: 1 fold | IIb Selectivity [23]: 11.8

Substance: v12 (IIb-specific comparator, symmetrical E233D_G237D_P238D_H268D_P271G_A330R), anti-CD19 (4G7) full-size antibody
Kd (FcγRIIb [27]): 0.013 µM | Kd (FcγRIIaR [28]): 0.46 µM | IIb Selectivity (IIb-Fold/IIaR-Fold) (FcγRIIb [29]): 106 fold

Substance: v12, symmetrical E233D_G237D_P238D_H268D_P271G_A330R (IIb-specific comparator) (antibody)
IIaR-fold [39]: 1.4 fold | IIb-Fold [40]: 112 fold | ELISA (% of non-competed FcγRIIb signal in presence of 10x FcγRIIa) [41]: 100% | IIb Selectivity [42]: 80.5 fold | Kd [43]: 0.22 µM | Kd [44]: 0.013 µM

Further lines, results first:

IIb/IIaR Selectivity vs. WT [1]: 1 fold | IIb-Fold vs. WT [2]: 1 fold | IIaR-Fold vs. WT [3]: 1 fold | Kd [4]: 1.4 µM | Kd [5]: 0.31 µM
Substance: Variant 16463, wild-type one-armed trastuzumab antibody (OAA) with heterodimeric IgG1 Fc

IIb-Fold (fold change in affinity over wild-type) (fold over wild-type) (FcγRIIb [11]): 29.3 | Kd (FcγRIIb [12]): 0.039 µM | Kd (FcγRIIaR [13]): 0.017 µM | IIb/IIaR Selectivity (FcγRIIb [14]): 1.4
Substance: Variant 18372, control without loop replacement (chain B S239D_H268D), one-armed antibody Scaffold 2

IIb-Fold (FcγRIIb [24]): 9 fold | IIaR-fold (FcγRIIaR [25]): 1 fold | IIb Selectivity (FcγRIIb [26]): 9 fold
Substance: Variant 27362, Strat 3 control (A_G236N_G237A / B_G236D_G237F_S239D_S267V_H268D) (antibody)

FcγR Binding (Fold Change over WT) (FcγRIa): 0 fold over WT | FcγR Binding (Fold Change over WT) (FcγRIIaH): 0.1 fold over WT | FcγR Binding (Fold Change over WT) (FcγRIIIaF): 0.1 fold over WT | FcγR Binding (Fold Change over WT) (FcγRIIb [30]): 112 fold over WT | FcγR Binding (Fold Change over WT) (FcγRIIaR [31]): 1.4 fold over WT | IIb/IIaR Selectivity (ratio (IIb-Fold/IIaR-Fold)) (FcγRIIb [32]): 82.9
Substance: v12 (OAA), IIb-specific comparator, trastuzumab one-armed antibody with symmetrical E233D_G237D_P238D_H268D_P271G_A330R

IIaR-fold [33]: 1.4 fold | IIb-Fold [34]: 112 fold | IIb Selectivity (IIb-Fold/IIaR-Fold) [35]: 80.5 fold | ELISA (% of non-competed FcγRIIb signal in presence of 10x FcγRIIa) [36]: 100% | Kd [37]: 0.22 µM | Kd [38]: 0.013 µM
Substance: v12, IIb-specific comparator with symmetrical E233D_G237D_P238D_H268D_P271G_A330R (Mimoto et al. 2013), trastuzumab antibody

IIaR-fold [45]: 37.3 fold | IIb-Fold [46]: 585 fold | IIb Selectivity [47]: 15.7 fold | IIb Selectivity Fold wrt Control [48]: 1.3 fold | IIaR-Fold wrt Control [49]: 1.1 fold | IIb-Fold wrt Control [50]: 1.4 fold | Kd [51]: 0.0083 µM | Kd [52]: 0.0025 µM
Substance: v26133 (A_N236I_strat1), one-armed trastuzumab antibody
